Laboratory results taken from patent US20230265151A1, “GIP/GLP1 CO-AGONIST COMPOUNDS” (priority 2020, published 2023).
Where a chain is given by its changes, count along the chain named.

T1: human GIP receptor (human, UniProt P48546 22-466)
T1 sequence (looked up): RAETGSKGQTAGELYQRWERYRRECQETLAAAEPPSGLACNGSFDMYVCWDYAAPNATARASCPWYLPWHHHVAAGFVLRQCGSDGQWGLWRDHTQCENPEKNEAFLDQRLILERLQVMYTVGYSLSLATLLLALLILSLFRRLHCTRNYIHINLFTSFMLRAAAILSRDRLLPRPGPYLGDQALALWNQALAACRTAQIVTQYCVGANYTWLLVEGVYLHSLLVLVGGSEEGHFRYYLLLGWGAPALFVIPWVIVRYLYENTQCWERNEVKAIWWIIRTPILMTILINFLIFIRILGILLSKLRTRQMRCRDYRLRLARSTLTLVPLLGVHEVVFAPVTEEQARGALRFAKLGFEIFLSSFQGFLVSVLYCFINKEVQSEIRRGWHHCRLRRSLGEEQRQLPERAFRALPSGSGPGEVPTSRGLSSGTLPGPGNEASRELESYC

B1: Example 287 (peptide)
peptide: YXEGTXTSDXSIXLDXIAQXKFIXXLIKGGPSSGAPPPS
modifications: Y-Aib-EGT-αMeF(2F)-TSD-4Pal-SI-αMeL-LD-Orn-IAQ-Aib-K(2-[2-(2-Amino-ethoxy)-ethoxy]-acetyl)2-(γ-Glu)-(11-(4-carboxyphenoxy)undecanoyl)FI-(D-Glu)-αMeY-LIK((2-[2-(2-Amino-ethoxy)-ethoxy]-acetyl)2-(γ-Glu)-(11-(4-carboxyphenoxy)undecanoyl)GGPSSGAPPPS-NH2)
B2: Example 272 (peptide)
peptide: B1 peptide with I17K, K28E
modifications: Y-Aib-EGT-αMeF(2F)-TSD-hTyr-SI-αMeL-LD-Orn-K((2-[2-(2-Amino-ethoxy)-ethoxy]-acetyl)2-CO-(CH2)12-CO2H)AQ-Aib-K((2-[2-(2-Amino-ethoxy)-ethoxy]-acetyl)2-CO-(CH2)12-CO2H)FI-(D-Glu)-αMeY-LIEGGPSSGAPPPS-NH2 …
B3: Example 279 (peptide)
peptide: B1 peptide with K21E, X24K
modifications: Y-Aib-EGT-αMeF(2F)-TSD-OMeY-SI-αMeL-LD-Orn-IAQ-Aib-EFIK((2-[2-(2-Amino-ethoxy)-ethoxy]-acetyl)2-(γ-Glu)-(10-(4-carboxyphenoxy)decanoyl))-αMeY-LIK((2-[2-(2-Amino-ethoxy)-ethoxy]-acetyl)2-(γ-Glu)-(10-(4-carboxyphenoxy)decanoyl))GGPSSGAPPPS-NH2
B4: Example 271 (peptide)
peptide: B1 peptide with I17K, K28E
modifications: Y-Aib-EGT-αMeF(2F)-TSD-Nle-SI-αMeL-LD-Orn-K((2-[2-(2-Amino-ethoxy)-ethoxy]-acetyl)2-CO-(CH2)12-CO2H)AQ-Aib-K((2-[2-(2-Amino-ethoxy)-ethoxy]-acetyl)2-CO-(CH2)12-CO2H)FI-(D-Glu)-αMeY-LIEGGPSSGAPPPS-NH2
B5: Example 283 (peptide)
peptide: B1 peptide with K21E, X24K
modifications: Y-Aib-EGT-αMeF(2F)-TSD-2Nal-SI-αMeL-LD-Orn-IAQ-Aib-EFIK((2-[2-(2-Amino-ethoxy)-ethoxy]-acetyl)2-(γ-Glu)-(10-(4-carboxyphenoxy)decanoyl))-αMeY-LIK((2-[2-(2-Amino-ethoxy)-ethoxy]-acetyl)2-(γ-Glu)-(10-(4-carboxyphenoxy)decanoyl))GGPSSGAPPPS-NH2
B6: Example 282 (peptide)
peptide: B1 peptide with I17K, K21E
modifications: Y-Aib-EGT-αMeF(2F)-TSD-2Nal-SI-αMeL-LD-Orn-K((2-[2-(2-Amino-ethoxy)-ethoxy]-acetyl)2-(γ-Glu)-(10-(4-carboxyphenoxy)decanoyl))AQ-Aib-EFI-(D-Glu)-αMeY-LIK((2-[2-(2-Amino-ethoxy)-ethoxy]-acetyl)2-(γ-Glu)-(10-(4-carboxyphenoxy)decanoyl))GGPSSGAPPPS-NH2
B7: Example 306 (peptide)
peptide: B1 peptide with S11X, K21E, X24K
modifications: Y-Aib-EGT-αMeF(2F)-TSD-4Pal-αMeS-I-αMeL-LD-Orn-IAQ-Aib-EFIK((2-[2-(2-Amino-ethoxy)-ethoxy]-acetyl)2-(γ-Glu)-(10-(4-carboxyphenoxy)decanoyl))-αMeY-LIK((2-[2-(2-Amino-ethoxy)-ethoxy]-acetyl)2-(γ-Glu)-(10-(4-carboxyphenoxy)decanoyl))GGPSSGAPPPS-NH2
B8: Example 278 (peptide)
peptide: B1 peptide with I17K, K21E
modifications: Y-Aib-EGT-αMeF(2F)-TSD-OMeY-SI-αMeL-LD-Orn-K((2-[2-(2-Amino-ethoxy)-ethoxy]-acetyl)2-(γ-Glu)-(10-(4-carboxyphenoxy)decanoyl))AQ-Aib-EFI-(D-Glu)-αMeY-LIK((2-[2-(2-Amino-ethoxy)-ethoxy]-acetyl)2-(γ-Glu)-(10-(4-carboxyphenoxy)decanoyl))GGPSSGAPPPS-NH2
B9: Example 268 (peptide)
peptide: YXEGTXTSDXSIXLDXIAQXKFIXXLIEGGPSSGAPPPSK
modifications: Y-Aib-EGT-αMeF(2F)-TSD-OMeY-SI-αMeL-LD-Orn-IAQ-Aib-K((2-[2-(2-Amino-ethoxy)-ethoxy]-acetyl)2-CO-(CH2)12-CO2H)FI-(D-Glu)-αMeY-LIEGGPSSGAPPPSK((2-[2-(2-Amino-ethoxy)-ethoxy]-acetyl)2-CO-(CH2)12-CO2H)-NH2
B10: Example 285 (peptide)
peptide: B9 peptide with I17K, K21E
modifications: Y-Aib-EGT-αMeF(2F)-TSD-4Pal-SI-αMeL-LD-Orn-K((2-[2-(2-Amino-ethoxy)-ethoxy]-acetyl)2-(γ-Glu)-(11-(4-carboxyphenoxy)undecanoyl))AQ-Aib-EFI-(D-Glu)-αMeY-LIEGGPSSGAPPPSK((2-[2-(2-Amino-ethoxy)-ethoxy]-acetyl)2-(γ-Glu)-(11-(4-carboxyphenoxy)undecanoyl))-NH2
B11: Example 273 (peptide)
peptide: B9 peptide with I17K, K21E
modifications: Y-Aib-EGT-αMeF(2F)-TSD-4Pal-SI-αMeL-LD-Orn-K((2-[2-(2-Amino-ethoxy)-ethoxy]-acetyl)2-(γ-Glu)-(10-(4-carboxyphenoxy)decanoyl))AQ-Aib-EFI-(D-Glu)-αMeY-LIEGGPSSGAPPPSK((2-[2-(2-Amino-ethoxy)-ethoxy]-acetyl)2-(γ-Glu)-(10-(4-carboxyphenoxy)decanoyl))-NH2
B12: Example 276 (peptide)
peptide: B9 peptide
modifications: Y-Aib-EGT-αMeF(2F)-TSD-4Pal-SI-αMeL-LD-Orn-IAQ-Aib-K((2-[2-(2-Amino-ethoxy)-ethoxy]-acetyl)2-(y-Glu)-(10-(4-carboxyphenoxy)decanoyl))FI-(D-Glu)-αMeY-LIEGGPSSGAPPPSK((2-[2-(2-Amino-ethoxy)-ethoxy]-acetyl)2-(γ-Glu)-(10-(4-carboxyphenoxy)decanoyl))-NH2
B13: Example 291 (peptide)
peptide: B9 peptide with I17K, K21E
modifications: Y-Aib-EGT-αMeF(2F)-TSD-OMeY-SI-αMeL-LD-Orn-K((2-[2-(2-Amino-ethoxy)-ethoxy]-acetyl)2-(γ-Glu)-CO-(CH2)10-CH3)AQ-Aib-EFI-(D-Glu)-αMeY-LIEGGPSSGAPPPSK((2-[2-(2-Amino-ethoxy)-ethoxy]-acetyl)2-(γ-Glu)-CO-(CH2)10-CH3)-NH2
B14: Example 288 (peptide)
peptide: B9 peptide
modifications: Y-Aib-EGT-αMeF(2F)-TSD-4Pal-SI-αMeL-LD-Orn-IAQ-Aib-K(2-[2-(2-Amino-ethoxy)-ethoxy]-acetyl)2-(γ-Glu)-(11-(4-carboxyphenoxy)undecanoyl)FI-(D-Glu)-αMeY-LIEGGPSSGAPPPSK((2-[2-(2-Amino-ethoxy)-ethoxy]-acetyl)2-(γ-Glu)-(11-(4-carboxyphenoxy)undecanoyl)-NH2)

Key:
Experiment in all cases: cell-based or functional assay
[1] = target: T1, human GIP receptor
[2] = target: human GLP-1 receptor (human, UniProt P43220 24-463)
[3] = target: human glucagon receptor (human, UniProt P47871 26-477)

| Binder | cAMP EC50 (1.0% HSA) [1] [nM] | cAMP EC50 (1.0% HSA) [2] [nM] | cAMP EC50 (1.0% HSA) [3] [nM] | cAMP Emax (1.0% HSA) [1] [%] | cAMP Emax (1.0% HSA) [2] [%] |
| --- | --- | --- | --- | --- | --- |
| B1 | 3.76 | 83.8 | > 9950 | – | – |
| B2 | 0.561 | 4.72 | > 9950 | 81.2 | – |
| B3 | 3.21 | 36.6 | > 9950 | – | – |
| B4 | 0.767 | 10.2 | > 9950 | – | – |
| B5 | 4.88 | 49.5 | > 9950 | – | – |
| B6 | 1.44 | 31.8 | > 9950 | – | – |
| B7 | 1.12 | 18.2 | > 9950 | – | – |
| B8 | 1.41 | 27 | > 9950 | – | – |
| B9 | 5.06 | 26.5 | > 9950 | 92.3 | – |
| B10 | 1.28 | 136 | > 9950 | – | – |
| B11 | 0.318 | 40.9 | > 9950 | – | – |
| B12 | 1.97 | 63.6 | > 9950 | 91.4 | – |
| B13 | 0.833 | 7.43 | > 9950 | – | – |
| B14 | 0.48 | 17.1 | > 9950 | 85.2 | 123 |
